Data taken from paper PMC9091730 (Journal of Advanced Research, 2021).
Where two headings read alike, the source gives them in different places.

Tests used:
[1] = target: L-type voltage-gated Ca2+ channel (TcL-VGCC) (Tetranychus cinnabarinus, UniProt A0A3Q9D0J7); test: voltage-clamp whole-cell current recording in Xenopus oocytes; type: cell-based
[2] = target: GST-fusion peptide of the near-end C-terminal motif (CT1) of T. cinnabarinus L-VGCC (Tetranychus cinnabarinus); test: pull-down
[3] = target: GST-fusion peptide CT1B (PreIQ and IQ) of T. cinnabarinus L-VGCC (Tetranychus cinnabarinus); test: pull-down
[4] = target: GST-fusion peptide of the N-terminal (NT) motif of T. cinnabarinus L-type voltage-gated Ca2+ channel (Tetranychus cinnabarinus); test: pull-down
[5] = target: GST-fusion peptide of the wild-type IQ motif of T. cinnabarinus L-VGCC (Tetranychus cinnabarinus); test: pull-down
[6] = target: GST-fusion peptide of the PreIQ motif of T. cinnabarinus L-VGCC (Tetranychus cinnabarinus); test: pull-down
[7] = target: GST-fusion peptide of the wild-type IQ motif of T. cinnabarinus L-VGCC (Tetranychus cinnabarinus); test: pull-down; remark: listed apart in the source

| EC50 [1] [nM] | Kd [2] [nM] | Kd, two-site model, first printed value [2] [nM] | Kd, two-site model, second printed value [2] [nM] | stoichiometry N [2] | stoichiometry N [3] | Kd [4] [nM] | Kd [5] [nM] | percent increase of CaM1 binding in the presence of scoparone (5.54 μM) [5] [%] | Kd [6] [nM] | Kd [7] [nM] | Compound |
| --- | --- | --- | --- | --- | --- | --- | --- | --- | --- | --- | --- |
| 5540 |  |  |  |  |  |  |  |  |  |  | COc1cc2ccc(=O)oc2cc1OC [compound 1, scoparone] |
|  | 931 | 2250 | 24 | > 1 | > 1 | 112 | 430 | 47.1 | 85 | 230 | Tetranychus cinnabarinus calmodulin 1 (TcCaM1), recombinant, purified (natural protein) |
